The data set relates to fluorogenic peptide (MCA)Lys-Lys-Pro-Ala-Glu-Phe-Phe-Ala-Leu-Lys(DNP).

From US20160083711 come the findings set out here.

Sequence of native cardosin B (chain, as listed by the source): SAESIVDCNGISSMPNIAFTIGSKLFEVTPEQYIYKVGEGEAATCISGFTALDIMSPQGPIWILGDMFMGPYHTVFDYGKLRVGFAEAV

A word on the Km: it is the substrate concentration at which the rate is half of its maximum. Broadly, the kcat is the number of substrate molecules converted per active site and unit of time at saturation. As a reminder, the kcat/Km is the second-order rate constant that governs catalysis at low substrate concentration. Consider native cardosin B, for which the Km is 1.4 µM, the VMax stood at 6.36e-06 µmol/s, the turnover number (kcat) is 24 s⁻¹ and the kcat/Km turned out to be 1.71e+07 M⁻¹ s⁻¹.
